Article PMC7022315

Target: Stx2k B-subunit (of the Stx2kE167Q toxoid) (Escherichia coli)
Experiment: crystal structure

Work on “Stx2k B-subunit (of the Stx2kE167Q toxoid) (natural protein)” yielded a stoichiometry N of 5.
